Laboratory results: US20050287527A1, “Quantitative ranking of transient ligand binding to target biomolecules” (National Research Council of Canada, priority 2002, published 2005)

How the values were obtained:
[1] = target: human prothrombin (human), P00734; experiment: 15N CPMG NMR relaxation dispersion, two-site fit; Glu57; 288 K
[2] = target: human prothrombin (human), P00734; experiment: 15N CPMG NMR relaxation dispersion, two-site fit; Glu58; 288 K
[3] = target: human prothrombin (human), P00734; experiment: 15N CPMG NMR relaxation dispersion, two-site fit; Glu62; 288 K
[4] = target: human prothrombin (human), P00734; experiment: 15N CPMG NMR relaxation dispersion, two-site fit; Ile59; 288 K
[5] = target: human prothrombin (human), P00734; experiment: 15N CPMG NMR relaxation dispersion, two-site fit; Phe56; 288 K
[6] = target: human prothrombin (human), P00734; experiment: 15N CPMG NMR relaxation dispersion, two-site fit; Tyr63; 288 K
[7] = target: human prothrombin (human), P00734; experiment: 15N CPMG NMR relaxation dispersion, linear three-site fit of Glu57; 298 K
[8] = target: human prothrombin (human), P00734; experiment: 15N CPMG NMR relaxation dispersion, full three-site fit of eighteen curves; 298 K
[9] = target: human prothrombin (human), P00734; experiment: 15N CPMG NMR relaxation dispersion, linear three-site fit of eighteen curves; 298 K
[10] = target: human α-thrombin (human), P00734; experiment: 15N CPMG NMR relaxation dispersion of thrombin-cleaved FD22, two-site fit, highest thrombin:ligand ratio; Arg47; FD22-C present; 288 K
[11] = target: human α-thrombin (human), P00734; experiment: 15N CPMG NMR relaxation dispersion of thrombin-cleaved FD22, two-site fit at the highest thrombin concentration; Arg47; FD22-C present; 288 K

B1: Hir(54-65) (peptide)
peptide: GDFEEIPEEYLQ
modifications: not checked
pb (apparent fraction of the bound peptide) [1]: 4.9%
pb (apparent fraction of the bound peptide) [2]: 6.5%
pb (apparent fraction of the bound peptide) [3]: 6.9%
pb (apparent fraction of the bound peptide) [4]: 6%
pb (apparent fraction of the bound peptide) [5]: 4.5%
pb (apparent fraction of the bound peptide) [6]: 6.7%

B2: N-acetyl-Hir(55-65) (peptide)
peptide: DFEEIPEEYLQ
modifications: not fully specified; modifications not checked
pb1 (population of the dissociation-competent bound state) [7]: 1.3%
pb2 (population of the second bound state) [7]: 4%
pb=pb1+pb2 (total bound population) [7]: 5.3%
pb1 (population of the first bound state) [8]: 1.45%
pb2 (population of the second bound state) [8]: 1.5%
pb (total bound population) [8]: 3%
pb1 (population of the first bound state) [9]: 2.3%
pb2 (population of the second bound state) [9]: 1%
pb (total bound population) [9]: 3.35%

B3: FD22-N (peptide)
peptide: FDPR
modifications: not checked
pb (apparent fraction of the bound peptide) [10]: 3.2%
koff [11]: 310 s⁻¹
